# Data: patent publication US20240043515A1 (Chugai, published 2024)
# T1: hFcγRIIaH on Jurkat effector cells (human, UniProt P12318 34-317)
# T1 sequence (looked up): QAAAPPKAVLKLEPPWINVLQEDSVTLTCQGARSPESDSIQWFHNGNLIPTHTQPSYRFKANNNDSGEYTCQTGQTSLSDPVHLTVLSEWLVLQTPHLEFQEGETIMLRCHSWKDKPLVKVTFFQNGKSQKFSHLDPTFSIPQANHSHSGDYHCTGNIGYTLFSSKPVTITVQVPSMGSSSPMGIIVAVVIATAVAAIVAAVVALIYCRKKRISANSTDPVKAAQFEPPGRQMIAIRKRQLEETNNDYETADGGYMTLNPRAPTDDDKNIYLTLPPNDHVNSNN
# T2: human FcγRIIb extracellular domain (human, UniProt P31994 43-217)
# T2 construct: extracellular domain; also called hFcγR IIb
# T2 sequence (looked up): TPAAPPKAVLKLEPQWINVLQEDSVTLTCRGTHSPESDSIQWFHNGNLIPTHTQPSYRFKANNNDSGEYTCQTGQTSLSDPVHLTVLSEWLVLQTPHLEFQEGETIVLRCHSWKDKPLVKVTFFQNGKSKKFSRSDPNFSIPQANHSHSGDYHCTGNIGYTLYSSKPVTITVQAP
# T3: human FcγRIIa R extracellular domain (human, UniProt P12318 34-217)
# T3 construct: extracellular domain; also called hFcγR IIa R; FcγRIIa allotype R131
# T3 sequence (looked up): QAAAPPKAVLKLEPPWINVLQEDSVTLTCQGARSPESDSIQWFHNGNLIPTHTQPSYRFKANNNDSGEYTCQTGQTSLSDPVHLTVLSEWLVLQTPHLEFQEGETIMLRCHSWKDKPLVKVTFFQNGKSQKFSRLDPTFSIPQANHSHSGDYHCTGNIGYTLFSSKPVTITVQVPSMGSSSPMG
# T4: human FcγRIIa H extracellular domain (human, UniProt P12318 34-217)
# T4 construct: extracellular domain; also called hFcγR IIa H; FcγRIIa allotype H131
# T4 sequence (looked up): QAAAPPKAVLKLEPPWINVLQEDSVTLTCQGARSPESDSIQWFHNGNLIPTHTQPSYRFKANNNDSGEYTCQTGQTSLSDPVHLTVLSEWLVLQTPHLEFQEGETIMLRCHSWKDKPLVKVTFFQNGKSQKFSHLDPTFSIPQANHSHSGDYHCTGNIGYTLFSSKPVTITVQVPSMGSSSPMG
# Experiments:
# [1] = target: hFcγRIIIaV on Jurkat effector cells (human, UniProt P08637 17-254); assay: cell-based or functional assay
# Sequence of hFcγRIIIaV on Jurkat effector cells (P08637 17-254, form in doubt): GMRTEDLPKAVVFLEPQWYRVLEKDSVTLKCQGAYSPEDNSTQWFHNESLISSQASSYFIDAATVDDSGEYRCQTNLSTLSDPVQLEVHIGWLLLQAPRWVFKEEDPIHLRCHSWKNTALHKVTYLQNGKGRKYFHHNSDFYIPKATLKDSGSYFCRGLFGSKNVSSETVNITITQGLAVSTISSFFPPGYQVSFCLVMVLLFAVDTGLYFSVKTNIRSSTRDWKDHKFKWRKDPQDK
# [2] = target: T1, hFcγRIIaH on Jurkat effector cells; assay: cell-based or functional assay
# [3] = target: T2, human FcγRIIb extracellular domain; assay: SPR; KD of G1d divided by KD of this antibody
# Description: (§1) The extracellular domains of FcγRs were produced by the method described in WO2014104165. The interaction between the produced antibodies and human FcγRs was analyzed using Biacore 8K+ by the method below. For the running buffer, 50 mM Na-Phosphate, 150 mM NaCl, and 0.05% Tween20 (pH 7.4) was used, and measurement was performed at 25° C. The sensor chip used was a Series S SA chip (GE Healthcare) onto which CaptureSelect Human Fab-kappa Kinetics Biotin Conjugate (Thermo Fisher Scientific) was immobilized. An antibody of interest was captured onto this chip, and each FcγR diluted with the running buffer was allowed to interact with it. The chip was regenerated using 10 mM Glycine-HCl (pH 1.5), and repeatedly used to capture antibodies and perform measurement. The dissociation constants KD (mol/L) of each antibody for FcγRs were calculated using Biacore Insight Evaluation Software, with a steady state affinity model for the dissociation constant for FcγRIIb and a 1:1 Langmuir binding model for the dissociation constants for the other FcγRs (Table 2).
# [4] = target: T5, human FcγRIIIa V extracellular domain (human, UniProt P08637 17-208); assay: SPR; KD of G1d divided by KD of this antibody
# T5 construct: extracellular domain; also called hFcγR IIIa V; FcγRIIIa allotype V158
# T5 sequence (P08637 17-208 F176V): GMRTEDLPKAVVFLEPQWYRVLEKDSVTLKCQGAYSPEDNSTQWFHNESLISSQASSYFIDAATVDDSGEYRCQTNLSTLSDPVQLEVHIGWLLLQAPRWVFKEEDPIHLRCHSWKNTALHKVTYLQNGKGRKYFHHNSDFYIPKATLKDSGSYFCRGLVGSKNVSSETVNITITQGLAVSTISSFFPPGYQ
# Description: as §1
# [5] = target: T3, human FcγRIIa R extracellular domain; assay: SPR; KD of G1d divided by KD of this antibody
# Description: as §1
# [6] = target: T4, human FcγRIIa H extracellular domain; assay: SPR; KD of G1d divided by KD of this antibody
# Description: as §1
# [7] = target: T6, human FcγRIa extracellular domain (human, UniProt P12314 16-292); assay: SPR; KD of G1d divided by KD of this antibody
# T6 construct: extracellular domain; also called hFcγR Ia
# T6 sequence (P12314 16-292): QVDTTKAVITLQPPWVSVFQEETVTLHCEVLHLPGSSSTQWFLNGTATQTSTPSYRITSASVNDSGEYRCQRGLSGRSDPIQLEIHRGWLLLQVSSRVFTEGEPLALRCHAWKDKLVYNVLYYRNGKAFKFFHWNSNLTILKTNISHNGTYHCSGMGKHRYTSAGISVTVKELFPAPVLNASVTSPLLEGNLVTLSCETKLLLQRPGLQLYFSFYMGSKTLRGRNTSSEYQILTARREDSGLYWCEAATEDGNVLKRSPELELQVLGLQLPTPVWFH
# Description: as §1
# [8] = target: T7, human FcγRIIIa F extracellular domain (human, UniProt P08637 17-208); assay: SPR; KD of G1d divided by KD of this antibody
# T7 construct: extracellular domain; also called hFcγR IIIa F; FcγRIIIa allotype F158
# T7 sequence (P08637 17-208): as the sequence (P08637 17-208 F176V) above, with V160F counted along it
# Description: as §1
# [9] = target: T5, human FcγRIIIa V extracellular domain; assay: SPR; KD for hFcγRIIb divided by KD for this FcγR
# Description: as §1
# [10] = target: T3, human FcγRIIa R extracellular domain; assay: SPR; KD for hFcγRIIb divided by KD for this FcγR
# Description: as §1
# [11] = target: T4, human FcγRIIa H extracellular domain; assay: SPR; KD for hFcγRIIb divided by KD for this FcγR
# Description: as §1
# [12] = target: T7, human FcγRIIIa F extracellular domain; assay: SPR; KD for hFcγRIIb divided by KD for this FcγR
# Description: as §1
"EC50 of reporter gene induction (ADCC Reporter Bioassay, Hepa1-6/hEREG target cells) [1] [ng/mL]","EC50 of reporter gene induction (ADCP Reporter Bioassay, Hepa1-6/hEREG target cells) [2] [µg/mL]",Relative value to KD between G1d and hFcgRs [3] [times],Relative value to KD between G1d and hFcgRs [4] [times],Relative value to KD between G1d and hFcgRs [5] [times],Relative value to KD between G1d and hFcgRs [6] [times],Relative value to KD between G1d and hFcgRs [7] [times],Relative value to KD between G1d and hFcgRs [8] [times],A/I ratio (KD for FcγRIIb divided by KD for each FcγR) [9] [ratio],A/I ratio (KD for FcγRIIb divided by KD for each FcγR) [10] [ratio],A/I ratio (KD for FcγRIIb divided by KD for each FcγR) [11] [ratio],A/I ratio (KD for FcγRIIb divided by KD for each FcγR) [12] [ratio],Binder
1.5,0.0192,3.4,322,24.1,118,1.2,987,2630,42.4,307,976,"EGL-ART6 (H240-Kn462/L73-k0//H240-H1445/L73-k0) (antibody, human IgG1, kappa, H1445: G236A/T250V/D270E/S298A/T307P/K326D/A330K/I332D/K334E + D356C/T366S/L368A/Y407V) heavy 1: QDQLVQSGAEVKKPGASVKVSCKASGFNIKDTYIQWVRQAPGQGLEWMGRIDPLRKQTKYREKFEGRVTITADTSTNTAYMELSSLRSEDTAVYYCVRSGREFDYWGQGTLVTVSSASTKGPSVFPLAPSSKSTSGGTAALGCLVKDYFPEPVTVSWNSGALTSGVHTFPAVLQSSGLYSLSSVVTVPSSSLGTQTYICNVNHKPSNTKVDKKVEPKSCDKTHTCPPCPAPEFQWGPMVFLFPPKPKDVLMISRTPEVTCVVVDVSDEEPEVKFNWYVDGVEVHNAKTKPREEQYNATYRVVSVLPVLHQDWLNGKEYKCKVSNDALPAPIEKTISKAKGQPREPQVCTLPPSRDELTKNQVSLWCLVKGFYPSDIAVEWESNGQPENNYKTTPPVLDSDGSFFLYSKLTVDKSRWQQGNVFSCSVMHEALHNHYTQKSLSLSP heavy 2: QDQLVQSGAEVKKPGASVKVSCKASGFNIKDTYIQWVRQAPGQGLEWMGRIDPLRKQTKYREKFEGRVTITADTSTNTAYMELSSLRSEDTAVYYCVRSGREFDYWGQGTLVTVSSASTKGPSVFPLAPSSKSTSGGTAALGCLVKDYFPEPVTVSWNSGALTSGVHTFPAVLQSSGLYSLSSVVTVPSSSLGTQTYICNVNHKPSNTKVDKKVEPKSCDKTHTCPPCPAPELLAGPSVFLFPPKPKDVLMISRTPEVTCVVVDVSHEEPEVKFNWYVDGVEVHNAKTKPREEQYNATYRVVSVLPVLHQDWLNGKEYKCKVSNDALPKPDEETISKAKGQPREPQVYTLPPSRCELTKNQVSLSCAVKGFYPSDIAVEWESNGQPENNYKTTPPVLDSDGSFFLVSKLTVDKSRWQQGNVFSCSVMHEALHNHYTQKSLSLSP light: DIQMTQSPSSLSASVGDRVTITCRASQDIHKYIAWYQQKPGQAPRLLIQYTSTLQPGVPSRFSGSGSGTDYTFTISSLQPEDIATYYCLQYEQLRTFGGGTKVEIKRTVAAPSVFIFPPSDEQLKSGTASVVCLLNNFYPREAKVQWKVDNALQSGNSQESVTEQDSKDSTYSLSSTLTLSKADYEKHKVYACEVTHQGLSSPVTKSFNRGEC"
0.107,0.0419,1.4,566,1.5,2.7,3.4,1290,11400,6.6,17.3,3160,"EGL-ART10 (H240-Kn494/L73-k0//H240-H1514/L73-k0) (antibody, human IgG1, kappa, Kn494: L234F/L235Q/G236W/S239M/T250V/H268D/D270E/S298A/T307P/I332E + Y349C/T366W; H1514: T250V/D270E/S298A/T307P/K326D/I332E/K334E + D356C/T366S/L368A/Y407V) heavy 1: QDQLVQSGAEVKKPGASVKVSCKASGFNIKDTYIQWVRQAPGQGLEWMGRIDPLRKQTKYREKFEGRVTITADTSTNTAYMELSSLRSEDTAVYYCVRSGREFDYWGQGTLVTVSSASTKGPSVFPLAPSSKSTSGGTAALGCLVKDYFPEPVTVSWNSGALTSGVHTFPAVLQSSGLYSLSSVVTVPSSSLGTQTYICNVNHKPSNTKVDKKVEPKSCDKTHTCPPCPAPEFQWGPMVFLFPPKPKDVLMISRTPEVTCVVVDVSDEEPEVKFNWYVDGVEVHNAKTKPREEQYNATYRVVSVLPVLHQDWLNGKEYKCKVSNKALPAPEEKTISKAKGQPREPQVCTLPPSRDELTKNQVSLWCLVKGFYPSDIAVEWESNGQPENNYKTTPPVLDSDGSFFLYSKLTVDKSRWQQGNVFSCSVMHEALHNHYTQKSLSLSP heavy 2: QDQLVQSGAEVKKPGASVKVSCKASGFNIKDTYIQWVRQAPGQGLEWMGRIDPLRKQTKYREKFEGRVTITADTSTNTAYMELSSLRSEDTAVYYCVRSGREFDYWGQGTLVTVSSASTKGPSVFPLAPSSKSTSGGTAALGCLVKDYFPEPVTVSWNSGALTSGVHTFPAVLQSSGLYSLSSVVTVPSSSLGTQTYICNVNHKPSNTKVDKKVEPKSCDKTHTCPPCPAPELLGGPSVFLFPPKPKDVLMISRTPEVTCVVVDVSHEEPEVKFNWYVDGVEVHNAKTKPREEQYNATYRVVSVLPVLHQDWLNGKEYKCKVSNDALPAPEEETISKAKGQPREPQVYTLPPSRCELTKNQVSLSCAVKGFYPSDIAVEWESNGQPENNYKTTPPVLDSDGSFFLVSKLTVDKSRWQQGNVFSCSVMHEALHNHYTQKSLSLSP light: DIQMTQSPSSLSASVGDRVTITCRASQDIHKYIAWYQQKPGQAPRLLIQYTSTLQPGVPSRFSGSGSGTDYTFTISSLQPEDIATYYCLQYEQLRTFGGGTKVEIKRTVAAPSVFIFPPSDEQLKSGTASVVCLLNNFYPREAKVQWKVDNALQSGNSQESVTEQDSKDSTYSLSSTLTLSKADYEKHKVYACEVTHQGLSSPVTKSFNRGEC"
